According to article PMC7065271 (Chemico-biological interactions, 2020):

Target: the molecule itself
Experiment: SEC

B1: Torpedo californica acetylcholinesterase tetramer (enzyme, UniProt P04058-2 22-596, looked up)
chain: DDHSELLVNTKSGKVMGTRVPVLSSHISAFLGIPFAEPPVGNMRFRRPEPKKPWSGVWNASTYPNNCQQYVDEQFPGFSGSEMWNPNREMSEDCLYLNIWVPSPRPKSTTVMVWIYGGGFYSGSSTLDVYNGKYLAYTEEVVLVSLSYRVGAFGFLALHGSQEAPGNVGLLDQRMALQWVHDNIQFFGGDPKTVTIFGESAGGASVGMHILSPGSRDLFRRAILQSGSPNCPWASVSVAEGRRRAVELGRNLNCNLNSDEELIHCLREKKPQELIDVEWNVLPFDSIFRFSFVPVIDGEFFPTSLESMLNSGNFKKTQILLGVNKDEGSFFLLYGAPGFSKDSESKISREDFMSGVKLSVPHANDLGLDAVTLQYTDWMDDNNGIKNRDGLDDIVGDHNVICPLMHFVNKYTKFGNGTYLYFFNHRASNLVWPEWMGVIHGYEIEFVFGLPLVKELNYTAEEEALSRRIMHYWATFAKTGNPNEPHSQESKWPLFTTKEQKFIDLNTEPMKVHQRLRVQMCVFWNQFLPKLLNATETIDEAERQWKTEFHRWSSYMMHWKNQFDHYSRHESCAEL
- stoichiometry N: 4
